Data reported in patent publication US20240010707A1 (BIOTEST, published 2024).

Target: T1, von Willebrand factor (UniProt P04275 764-2813, limits assumed)
T1 construct: also called vWF
Assay: ELISA on coated vWF, bound FVIII detected with chromogenic Coatest SP FVIII reagents; reference value set by definition
Procedure: All other potencies were calculated in relation to ReFacto AF. […] However, the only significant difference could be detected between Nuwiq and FVIII-19M. The reduced binding, also of FVIII-6rs, might be due to different post-translational modifications made by the CAP-T cells. This could be correlated with the reduced sulfation detected in the heavy and light chain in the Western Blot. Missing sulfation might have influenced vWF binding, as especially the sulfation at Y1683 is important for the binding of vWF.
For the detection of the binding of the FVIII constructs to vWF, another ELISA was performed. In this case, vWF was coated to the wells of a 96-well plate at a concentration of 0.1 U/ml. Afterwards the FVIII variants were applied at a concentration of 0.25 U/ml. ReFacto AF was used as a reference. Each sample was furtheron diluted 1:2 in buffer. A total of 7 serial dilutions were performed. […] After addition of the substrate, the plate was immediately put into a plate reader and the development of the chromogenic substrate was measured at 405 nm for 490 seconds. The generated curves were analyzed using the PLA 3.0 software. Potencies of vWF-binding of the different FVIII products were calculated in relation to ReFacto AF.

B1: ReFacto AF (other)
chain: ATRRYYLGAVELSWDYMQSDLGELPVDARFPPRVPKSFPFNTSVVYKKTLFVEFTDHLFNIAKPRPPWMGLLGPTIQAEVYDTVVITLKNMASHPVSLHAVGVSYWKASEGAEYDDQTSQREKEDDKVFPGGSHTYVWQVLKENGPMASDPLCLTYSYLSHVDLVKDLNSGLIGALLVCREGSLAKEKTQTLHKFILLFAVFDEGKSWHSETKNSLMQDRDAASARAWPKMHTVNGYVNRSLPGLIGCHRKSVYWHVIGMGTTPEVHSIFLEGHTFLVRNHRQASLEISPITFLTAQTLLMDLGQFLLFCHISSHQHDGMEAYVKVDSCPEEPQLRMKNNEEAEDYDDDLTDSEMDVVRFDDDNSPSFIQIRSVAKKHPKTWVHYIAAEEEDWDYAPLVLAPDDRSYKSQYLNNGPQRIGRKYKKVRFMAYTDETFKTREAIQHESGILGPLLYGEVGDTLLIIFKNQASRPYNIYPHGITDVRPLYSRRLPKGVKHLKDFPILPGEIFKYKWTVTVEDGPTKSDPRCLTRYYSSFVNMERDLASGLIGPLLICYKESVDQRGNQIMSDKRNVILFSVFDENRSWYLTENIQRFLPNPAGVQLEDPEFQASNIMHSINGYVFDSLQLSVCLHEVAYWYILSIGAQTDFLSVFFSGYTFKHKMVYEDTLTLFPFSGETVFMSMENPGLWILGCHNSDFRNRGMTALLKVSSCDKNTGDYYEDSYEDISAYLLSKNNAIEPRSFSQNPPVLKRHQREITRTTLQSDQEEIDYDDTISVEMKKEDFDIYDEDENQSPRSFQKKTRHYFIAAVERLWDYGMSSSPHVLRNRAQSGSVPQFKKVVFQEFTDGSFTQPLYRGELNEHLGLLGPYIRAEVEDNIMVTFRNQASRPYSFYSSLISYEEDQRQGAEPRKNFVKPNETKTYFWKVQHHMAPTKDEFDCKAWAYFSDVDLEKDVHSGLIGPLLVCHTNTLNPAHGRQVTVQEFALFFTIFDETKSWYFTENMERNCRAPCNIQMEDPTFKENYRFHAINGYIMDTLPGLVMAQDQRIRWYLLSMGSNENIHSIHFSGHVFTVRKKEEYKMALYNLYPGVFETVEMLPSKAGIWRVECLIGEHLHAGMSTLFLVYSNKCQTPLGMASGHIRDFQITASGQYGQWAPKLARLHYSGSINAWSTKEPFSWIKVDLLAPMIIHGIKTQGARQKFSSLYISQFIIMYSLDGKKWQTYRGNSTGTLMVFFGNVDSSGIKHNIFNPPIIARYIRLHPTHYSIRSTLRMELMGCDLNSCSMPLGMESKAISDAQITASSYFTNMFATWSPSKARLHLQGRSNAWRPQVNNPKEWLQVDFQKTMKVTGVTTQGVKSLLTSMYVKEFLISSSQDGHQWTLFFQNGKVKVFQGNQDSFTPVVNSLDPPLLTRYLRIHPQSWVHQIALRMEVLGCEAQDLY
With B1 the “potency of binding to vWF (relative to ReFacto AF)” value was 1 relative potency.
